Assay [1] has as its system STAT3 (Tyr705). Put plainly: STAT3 phosphorylation by Western blotting. The conditions noted are these: MSCs treated with the substance. The assay is classed as cell-based, human. As for the experimental part:
After treatment, the protein levels of total STAT3 and phospho-STAT3 (Tyr705) were examined by Western blotting. […] Cell cycle progression was investigated by flow cytometry with PI staining. Fraction of cells in each phase (G1, S, G2/M) of the cell cycle was evaluated. Cells expressing STAT3 shRNA were treated with EpEX for 18 h, after which cell cycle progression was investigated by flow cytometry with PI staining. Fraction of cells in each phase (G1, S, G2/M) of the cell cycle was evaluated. […] The protein levels of cell cycle regulators (cyclin D1, cyclin D2, cyclin E1, CDK4 and CDK9) and pluripotency factors (Oct4, Sox2, c-Myc, Lin28) were examined by Western blotting. MSCs expressing STAT3 shRNA or shLuc were stimulated with EpEX. After treatment, the protein levels of cell cycle regulators (cyclin D1, cyclin D2, cyclin E1, CDK4 and CDK9) and pluripotency factors (Oct4, Sox2, c-Myc, and Lin 28) were examined by Western blotting. […] After treatment, the gene expression of pluripotency factors (Oct4, Sox2, c-Myc, Lin28 and EpCAM) was examined by qPCR.
FIG. 8. EpEX and EGF induce the phosphorylation of EGFR and STAT3. […] The phosphorylation of EGFR (Tyr845) and STAT3 (Tyr705) were examined by Western blotting with specific antibodies.
Western blotting was performed as previously described (Takahashi et al., 2003). […]
(In general: A western blot detects proteins with antibodies after separation by electrophoresis.)

In assay [2] the test system is MSCs. Description: Cell cycle progression by flow cytometry with PI staining. The assay is classed as cell-based, human. Conditions: EpEX, at 18 h; from 6.5% without EpEX. As for the experimental part:
Phospho-EGFR (Tyr845) was detected by Western blotting. […] After treatment, cell cycle progression was investigated by flow cytometry with PI staining. Fraction of cells in each phase (G1, S, G2/M) of the cell cycle was evaluated. Cells that expressed EGFR shRNA or shLuc were treated with EpEX for 18 h. After treatment, cell cycle progression was investigated by flow cytometry with PI staining. Fraction of cells in each phase (G1, S, G2/M) of the cell cycle was evaluated. […] The protein expression of cell cycle regulators (cyclin D1, cyclin D2, cyclin E1) and pluripotency factors (Oct4, Sox2, c-Myc, Lin28) was examined by Western blotting. MSCs expressing EGFR shRNA were stimulated by EpEX. After treatment, the protein expression of cell cycle regulators (cyclin D1, cyclin E1, CDK4 and CDK9) and pluripotency factors (Oct4, in Sox2, c-Myc, and Lin 28) was examined by Western blotting. […] After treatment, the gene expression of pluripotency factors (Oct4, Sox2, c-Myc, Lin28 and EpCAM) was examined by qPCR.
After treatment, the protein levels of total STAT3 and phospho-STAT3 (Tyr705) were examined by Western blotting. […] Cell cycle progression was investigated by flow cytometry with PI staining. Fraction of cells in each phase (G1, S, G2/M) of the cell cycle was evaluated. […] Fraction of cells in each phase (G1, S, G2/M) of the cell cycle was evaluated. […]

The test system of assay [3] is human bone marrow-derived MSCs. Description: MSC doubling time (cell number counted). Type of assay: cell-based. The protocol:
The proliferation of MSCs was examined by measuring doubling time. MSCs were treated with EpEX (3 μg/mL) for 24 and 48 h. Cell number was counted and then doubling time was calculated. MSCs were treated with EpEX (3 μg/mL) for the indicated times. After treatment, protein expression of cell cycle regulators (cyclin D1, cyclin D2, cyclin D3, cyclin E1, CDK4 and CDK9) and pluripotency factors (Oct4, Sox2, c-Myc, and Lin28) was examined by Western blotting.
All experiments with primary human cells were conducted in accordance with relevant guidelines and regulations. Human primary bone marrow mesenchymal stem cells (BMMSCs) were purchased from LONZA and were cultured with Dulbecco's Modified Eagle Media-low glucose (DMEM-LG) medium containing 16.6% FBS, 1 mM L-glutamine (Invitrogen), 100 μg/ml Penicillin/Streptomycin (Gibco). All cells were cultured at 37° C. and 5% CO2. All experiments on primary cells were performed within 10 passages.
We used human bone marrow-derived MSCs to study the effects of EpEX and first investigated whether EpEX promotes cell proliferation of MSCs. […] Next, we examined the effect of EpEX on cell cycle progression by flow cytometry with propidium iodide (PI) staining. […] EpCAM has been reported to enhance cell cycle progression through upregulation of the proto-oncogene c-Myc and cyclin A/E (Munz et al., 2004). […]

Values joined by “and” are separate entries in the source; they are usually repeats but may differ in a detail not shown here. Equal values may be shown once.

B1: EpEX: extracellular domain of human EpCAM, 265 amino acids in length (SEQ ID NO: 2) (protein, listed as Homo sapiens)
chain: MAPPQVLAFGLLLAAATATFAAAQEECVCENYKLAVNCFVNNNRQCQCTSVGAQNTVICSKLAAKCLVMKAEMNGSKLGRRAKPEGALQNNDGLYDPDCDESGLFKAKQCNGTSMCWCVNTAGVRRTDKDTEITCSERVRTYWIIIELKHKAREKPYDSKSLRTALQKEITTRYQLDPKFITSILYENNVITIDLVQNSSQKTQNDVDIADVAYYFEKDVKGESLFHSKKMDLTVNGEQLDLDPGQTLIYYVDEKAPEFSMQGLK
For B1, the STAT3 phosphorylation result in assay [1] is given as “stimulates”. Also, the “percentage of cells in G2/M phase” value in assay [2] stood at 29.3%. The MSC doubling time was 16.1 ± 0.1 h in assay [3] (P3, EpEX 3 μg/mL (0 μg/mL: 17.6 ± 0.3 h)); 22.5 h and 22.5 ± 0.4 h in assay [3] (P9, EpEX 3 μg/mL (0 μg/mL: 38.2 ± 1.7 h)).

Values taken from patent US20260125649A1, “MEDIUM COMPOSITION AND METHOD FOR CULTURING MESENCHYMAL STEM CELLS” (ACADEMIA SINICA, priority 2018, published 2026).
